The labels stand for the following.
B1: eCC6.30.9 (antibody, V domains shown)
VH: QVQLVQSGAEVKKPGSSVKVSCKASGGIFSIYAITWVRQAPGQGLEWMGAIIPIIGTANYAQKFQGRVTITADKSTSTAYMELSSLRSEDTAVYYCARDFRYCSSTRCYFNFDPWGQGTLVTVSS
VL: DIQMTQSPSSLSASVGDRVTITCRASQSISNYLNWYQQEAGKAPKLLIYTASSLQSGVPSRFSGSGSGTDFTLTISSLQPEDFATYYCQQSYSTPRTFGQGTKVDIK
notes: copies: 2 + 2
B2: eCC6.33.5 (antibody, V domains shown)
VH: QVQLVQSGAEVKKPGSSVKVSCKAVGGTFSSSAIYWVRQAPGQGLEWMGGIIPILDIANYAQKFQGRVTITADKSTSTAFMELSSLRSEDTAVYYCALRNQWDLVVYWGQGTLVTVSS
VL: EIVLTQSPGTLSLSPGERATLSCHASQSVSSSYLAWYQQKPGQAPRLLIYGAESRATGIPDRFSGSGSGTDFTLTISRLEPEDFAVYYCQHYGSSTWTFGQGTKLEIK
notes: copies: 2 + 2
B3: eCC6.33.6 (antibody, V domains shown)
VH: QVQLVQSGAEVKKPGSSVKVSCKAPGGTFSSSAISWVRQAPGQGLEWMGGIIPILDITTYAQKFQGRVTITADKSTSTAFMELSSLRSEDTAVYYCALRNQWDLLIYWGQGTLVTVSS
VL: EIVLTQSPGTLSLSPGERATLSCRASQSVSSHYLAWYQQKPGQAPRLLIYGASSRYTGIPDRFSGSGSGTDFTLTISRLEPEDFAVYYCQHYGSSHWTFGQGTKLEIK
notes: copies: 2 + 2
B4: eCC6.33.9 (antibody, V domains shown)
VH: QVQLVQSGAEVKKPGSSVKVSCKSSGGTFSSSAYSWVRQAPGQGLEWMGTIIPILDITNYAQKFQGRVTITADKSTSTAFMELSSLRSEDTAVYYCAQRNQWDLIVYWGQGTLVTVSS
VL: EIVLTQSPGTLSLSPGERATLSCRASQWVSSSYIAWYQQKPGQAPRLLIYGAESRATGIPDRFSGSGSGTDFTLTISRLEPEDFAVYYCQHYGSSSWTFGQGTKLEIK
notes: copies: 2 + 2

For orientation: Kd means the constant that tells how readily two partners part at equilibrium. Higher therefore signals a looser complex. The koff is the first-order rate constant of dissociation. For orientation: kon means the rate constant with which the complex forms. A low value points to slower complex formation.

In this experiment the target is T1, SARS-CoV-2 RBD (Wuhan-1) (SARS-CoV-2, Wuhan-1, UniProt P0DTC2).
T1 construct: source: Expi293, transfected, purified (Ni-NTA, SEC)
The experiment is described as follows: SPR. The settings on record: both partners purified.
In turn, B1 registered a Kd of 0.0788 nM, an off-rate constant (koff) of 0.000202 s⁻¹ and an on-rate constant (kon) of 2.57e+06 M⁻¹ s⁻¹.

B2 yielded a Kd of 17.3 nM, an off-rate constant (koff) of 0.00411 s⁻¹ and a kon of 237000 M⁻¹ s⁻¹.

Turning to B3, binding was characterised by a dissociation constant (Kd) of 13.3 nM, the off-rate (koff) was 0.00167 s⁻¹ and the kon is 126000 M⁻¹ s⁻¹.

Consider B4, for which the Kd was 14.3 nM, the koff worked out at 0.00218 s⁻¹ and the kon stood at 153000 M⁻¹ s⁻¹.
